The results in this text go back to article PMC10157173.

In general, EC50 refers to the concentration needed to bring the measured effect to its halfway point.

Assay [1] deals with Tag-free recombinant human EGFR (Homo sapiens (Human).) (UniProt P00533). Briefly: ELISA; sandwich ELISA for bispecificity: tag-free EGFR, HER2 or HER3 coated at 1000 ng/ml in PBS; dilutions of BiXAb™ in PBS, 37°C, 1 h; then 1000 ng/ml of the His-tagged second receptor, 37°C, 1 h; detected with peroxidase-conjugated anti-His tag antibody. On the technique in general: ELISA stands for enzyme-linked immunosorbent assay.

Assay [2] concerns the target Tag-free recombinant human HER3 ECD (Homo sapiens (Human).) (UniProt P21860). Described as above.

With “BiXAb™ 3Patri-1Matu-Fc (bispecific antibody)”, the figures for the EC50 in assay [1] and in assay [2] were 170 nM and 0.55 nM, respectively.
